Values belong to the binder of their own block, whether it stands above or below them.
Legend:
[1] = molecular target: mouse p55 TNF receptor (mouse) (UniProt P25118); experiment: cell-based or functional assay
[2] = molecular target: mouse p75 TNF receptor (mouse) (UniProt P25119); experiment: cell-based or functional assay
[3] = molecular target: T1, p55 TNF Receptor peptide (Dabcyl-N-V-K-G-T-E-D-S-G-Edans)
T1 chain: NVKGTEDSG

[4] = molecular target: T2, p75 TNF Receptor peptide (Dabcyl-C-T-S-T-S-P-T-R-Edans)
T2 chain: CTSTSPTR

[5] = molecular target: T3, IL-1 Type I Receptor peptide (Dabcyl-T-H-G-I-D-A-A-Y-I-Q-Edans)
T3 chain: THGIDAAYIQ

[6] = molecular target: T4, IL-1 Type II Receptor peptide (Dabcyl-Q-T-K-R-T-T-V-K-E-A-Edans)
T4 chain: QTKRTTVKEA

[7] = molecular target: T5, IL-6 Receptor peptide (Dabcyl-A-N-A-T-S-L-P-Edans)
T5 chain: ANATSLP

mouse p75 TNF receptor (mouse), sequence (P25119 23-474 limits assumed): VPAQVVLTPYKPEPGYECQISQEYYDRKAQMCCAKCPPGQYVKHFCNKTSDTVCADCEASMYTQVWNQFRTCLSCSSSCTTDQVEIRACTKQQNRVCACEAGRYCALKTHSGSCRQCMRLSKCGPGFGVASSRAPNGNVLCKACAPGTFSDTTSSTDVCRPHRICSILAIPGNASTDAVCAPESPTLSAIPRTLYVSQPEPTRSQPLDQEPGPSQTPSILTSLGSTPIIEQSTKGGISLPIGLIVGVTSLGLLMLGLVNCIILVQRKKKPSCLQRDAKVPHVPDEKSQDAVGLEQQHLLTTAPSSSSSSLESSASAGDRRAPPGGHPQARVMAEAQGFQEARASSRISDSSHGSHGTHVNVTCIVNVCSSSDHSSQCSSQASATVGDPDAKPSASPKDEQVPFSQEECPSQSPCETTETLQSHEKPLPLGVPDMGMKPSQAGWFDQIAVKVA
mouse p55 TNF receptor (mouse), sequence (P25118 30-454 limits assumed): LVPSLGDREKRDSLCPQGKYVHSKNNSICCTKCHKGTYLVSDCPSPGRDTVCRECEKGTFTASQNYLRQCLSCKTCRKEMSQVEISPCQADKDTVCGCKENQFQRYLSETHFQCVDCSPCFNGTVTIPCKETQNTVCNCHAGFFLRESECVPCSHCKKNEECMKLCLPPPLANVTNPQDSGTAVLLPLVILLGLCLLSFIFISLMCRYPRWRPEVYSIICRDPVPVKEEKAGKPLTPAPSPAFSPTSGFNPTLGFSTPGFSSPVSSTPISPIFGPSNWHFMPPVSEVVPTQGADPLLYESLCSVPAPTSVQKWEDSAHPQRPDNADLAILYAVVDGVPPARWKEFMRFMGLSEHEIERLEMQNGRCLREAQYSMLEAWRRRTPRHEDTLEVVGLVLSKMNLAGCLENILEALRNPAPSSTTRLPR

circulating TNF receptor in serum of Balb/c mice after s.c. MP8 (ELISA) [1]: 100 fold
circulating TNF receptor in serum of Balb/c mice after s.c. MP8 (ELISA) [2]: 100 fold
B1: MP8 (original clone, core MP8, N-terminal His tag and thrombin site) (protein)
chain: WIQRIRHEGNSTVYEWRTGTEPSVVERPHLEELPEQVAEDAIDWGDFGVEAVSEGTDSGISAEAAGIDWGIFPESDSKDPGGDGIDWGDDAVALQITVLEAGTQAPEGVARGPDALTLLEYTETRNQFLDELMELEIFLAQRAVELSEEADVLSVSQFQLAPAILQGQTKEKMVTMVSVLEDLIGKLTSLQLQHLFMILASPRYVDRVTEFLQQKLKQSQLLALKKELMVQKQQEALEEQAALEPKLDLLLEKTKELQKLIEADISKRYSGRPVNLMGTSL
peptide cleavage (FRET assay, Zn++/Ca++ dependent) [3]: MP8 cleaves the peptides from both the p55 and p75 TNF receptors (TNF-R1 and TNF-R2)
peptide cleavage (FRET assay, Zn++/Ca++ dependent) [4]: MP8 cleaves the peptides from both the p55 and p75 TNF receptors (TNF-R1 and TNF-R2)
relative peptide cleavage activity (FRET assay) [5]: Clone MP8 shows specificity for several receptors involved in the inflammatory pathway (TNF-R p55 and p75 isoforms, IL-6 receptor and IL-1 receptors) in comparison with control substrates
relative peptide cleavage activity (FRET assay) [6]: Clone MP8 shows specificity for several receptors involved in the inflammatory pathway (TNF-R p55 and p75 isoforms, IL-6 receptor and IL-1 receptors) in comparison with control substrates
peptide cleavage (FRET assay, Zn++/Ca++ dependent) [7]: MP8 also cleaves the IL-6 receptor peptide with high activity

B2: MP8-FL2 (full length MP8 without His tag, from E. coli strain MP820) (protein)
chain: MCVHPGACLPHVGVSWAEFPGHFSVELSSLLVRNVNYEIPSLKKQIAKCQQLQQEYSRKEEECQAGAAEMREQFYHSCKQYGITGENVRGELLALVKDLPSQLAEIGAAAQQSLGEAIDVYQASVGFVCESPTEQVLPMLRFVQKRGNSTVYEWRTGTEPSVVERPHLEELPEQVAEDAIDWGDFGVEAVSEGTDSGISAEAAGIDWGIFPESDSKDPGGDGIDWGDDAVALQITVLEAGTQAPEGVARGPDALTLLEYTETRNQFLDELMELEIFLAQRAVELSEEADVLSVSQFQLAPAILQGQTKEKMVTMVSVLEDLIGKLTSLQLQHLFMILASPRYVDRVTEFLQQKLKQSQLLALKKELMVQKQQEALEEQAALEPKLDLLLEKTKELQKLIEADISKRYSGRPVNLMGTSL
peptide cleavage (FRET assay) [3]: The same preparation of MP8-FL2 caused cleavage of both R1 (Dabcyl-N-V-K-G-T-E-D-S-G-Edans; SEQ. ID NO:71) and R2
peptide cleavage (FRET assay) [4]: The same preparation of MP8-FL2 caused cleavage of both R1 ... and R2 (Dabcyl-C-T-S-T-S-P-T-R-Edans; SEQ. ID NO:73)

— patent US20070149453A1
